Measurements: IntAct's records for PubMed 23481255

B1: ADP-ribose glycohydrolase OARD1 (Homo sapiens), Q9Y530 (parent)
chain: MASSLNEDPEGSRITYVKGDLFACPKTDSLAHCISEDCRMGAGIAVLFKKKFGGVQELLNQQKKSGEVAVLKRDGRYIYYLITKKRASHKPTYENLQKSLEAMKSHCLKNGVTDLSMPRIGCGLDRLQWENVSAMIEEVFEATDIKITVYTL
B2: ADP-ribose glycohydrolase OARD1 (Homo sapiens), Q9Y530 (parent)
chain: B1 chain
partner: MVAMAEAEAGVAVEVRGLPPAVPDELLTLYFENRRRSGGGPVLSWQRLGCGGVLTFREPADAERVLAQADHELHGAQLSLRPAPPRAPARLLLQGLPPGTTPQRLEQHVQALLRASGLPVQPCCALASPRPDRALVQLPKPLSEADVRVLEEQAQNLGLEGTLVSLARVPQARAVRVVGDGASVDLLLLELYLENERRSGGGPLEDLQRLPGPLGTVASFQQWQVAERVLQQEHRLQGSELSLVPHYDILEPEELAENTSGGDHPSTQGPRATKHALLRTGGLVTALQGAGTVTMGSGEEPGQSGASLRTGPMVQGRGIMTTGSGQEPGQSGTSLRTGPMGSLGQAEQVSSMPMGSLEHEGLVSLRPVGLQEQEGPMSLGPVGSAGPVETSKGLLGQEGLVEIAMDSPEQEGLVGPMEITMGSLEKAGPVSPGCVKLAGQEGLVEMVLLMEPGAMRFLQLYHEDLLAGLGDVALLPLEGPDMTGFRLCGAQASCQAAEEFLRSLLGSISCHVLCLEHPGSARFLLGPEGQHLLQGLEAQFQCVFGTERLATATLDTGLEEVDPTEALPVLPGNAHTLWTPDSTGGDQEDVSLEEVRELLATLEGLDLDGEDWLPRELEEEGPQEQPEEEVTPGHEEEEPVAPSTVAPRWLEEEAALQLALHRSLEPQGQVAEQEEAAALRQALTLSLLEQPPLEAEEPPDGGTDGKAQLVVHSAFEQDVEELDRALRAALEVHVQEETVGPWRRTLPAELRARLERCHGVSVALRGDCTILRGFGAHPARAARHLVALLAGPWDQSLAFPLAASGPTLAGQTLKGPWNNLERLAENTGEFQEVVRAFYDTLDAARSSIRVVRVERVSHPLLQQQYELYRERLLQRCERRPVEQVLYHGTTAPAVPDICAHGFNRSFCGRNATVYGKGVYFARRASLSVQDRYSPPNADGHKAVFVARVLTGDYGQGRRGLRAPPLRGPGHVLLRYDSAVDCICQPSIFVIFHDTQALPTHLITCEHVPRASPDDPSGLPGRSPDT

Variants of: B1
Conditions: with parp1_human PARP1, P09874
Chain of parp1_human PARP1, P09874 (P09874 whole entry): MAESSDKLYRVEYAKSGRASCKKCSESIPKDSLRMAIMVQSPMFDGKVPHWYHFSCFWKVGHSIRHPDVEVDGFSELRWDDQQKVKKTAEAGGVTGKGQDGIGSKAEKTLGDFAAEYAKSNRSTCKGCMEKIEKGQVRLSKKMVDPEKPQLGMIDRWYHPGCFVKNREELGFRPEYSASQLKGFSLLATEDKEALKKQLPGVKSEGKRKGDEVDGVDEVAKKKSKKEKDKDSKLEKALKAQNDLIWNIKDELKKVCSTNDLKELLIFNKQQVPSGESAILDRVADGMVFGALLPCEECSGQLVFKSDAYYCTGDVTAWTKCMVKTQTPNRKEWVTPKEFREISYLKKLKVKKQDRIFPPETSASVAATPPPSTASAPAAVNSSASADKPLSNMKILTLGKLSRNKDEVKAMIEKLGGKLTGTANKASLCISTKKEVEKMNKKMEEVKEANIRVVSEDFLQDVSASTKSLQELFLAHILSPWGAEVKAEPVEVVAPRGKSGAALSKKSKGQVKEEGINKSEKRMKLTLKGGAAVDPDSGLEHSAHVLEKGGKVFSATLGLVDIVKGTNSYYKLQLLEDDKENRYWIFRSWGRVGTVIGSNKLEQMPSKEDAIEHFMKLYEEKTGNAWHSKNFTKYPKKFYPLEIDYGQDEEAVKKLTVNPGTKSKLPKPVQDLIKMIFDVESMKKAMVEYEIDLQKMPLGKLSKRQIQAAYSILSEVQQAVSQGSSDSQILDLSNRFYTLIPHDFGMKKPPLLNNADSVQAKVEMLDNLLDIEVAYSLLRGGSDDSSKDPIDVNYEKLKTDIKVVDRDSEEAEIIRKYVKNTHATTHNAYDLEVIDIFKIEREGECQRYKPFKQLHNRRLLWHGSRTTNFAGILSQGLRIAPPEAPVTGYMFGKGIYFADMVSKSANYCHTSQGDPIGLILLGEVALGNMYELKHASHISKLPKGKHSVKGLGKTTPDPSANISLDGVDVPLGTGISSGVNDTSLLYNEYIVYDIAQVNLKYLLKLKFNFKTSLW

| Variant | effect of a mutation on the interaction |
| --- | --- |
| K84R | disrupting interaction |

Variants of: B1
Conditions: with parp1_human PARP1, P09874
Remark: another data set of the same source

| Variant | effect of a mutation on the interaction |
| --- | --- |
| K84A | disrupting interaction |

Variants of: B1
Conditions: with parp1_human PARP1, P09874
Remark: another data set of the same source

| Variant | effect of a mutation on the interaction |
| --- | --- |
| G123E | disrupting interaction |

Variants of: B1
Conditions: with parp1_human PARP1, P09874
Remark: another data set of the same source

| Variant | effect of a mutation on the interaction |
| --- | --- |
| D125A | disrupting interaction |

Variants of: B1
Conditions: with parp1_human PARP1, P09874
Remark: another data set of the same source

| Variant | effect of a mutation on the interaction |
| --- | --- |
| D125A | increasing interaction |

Variants of: B2
Conditions: with par10_human PARP10, Q53GL7

| Variant | effect of a mutation on the interaction |
| --- | --- |
| D125A | disrupting interaction |

Variants of: B2
Conditions: with par10_human PARP10, Q53GL7
Remark: another data set of the same source

| Variant | effect of a mutation on the interaction |
| --- | --- |
| K84A | disrupting interaction |
